# According to the supplement of paper PMC10724198:
# ± gives the standard deviation of the averaged measurements.
# Test system: Saccharomyces cerevisiae
# Experiment: protein stability index of tFT-peptide fusion (C-terminal peptide) (PSI (0-1 scale)); higher = more stable (slower turnover)
# Conditions: genetic background: wild type; temperature: 30 C
# 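Note: PSI is a weighted mean of sequencing reads over stability bins, variants kept only with over 10 reads, mCherry proximal and sfGFP distal, peptide attached via GGGS linker.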
row,Sequence,protein stability index
1,APPRPPPPSPIP,0.726 ± 0.057
2,MAFKLFPFGRNL,0.73 ± 0.028
3,PAVLLGPCARVP,0.699 ± 0.04
4,GSQSPKEEYHES,0.632 ± 0.045
5,QVAIEKTTHVQE,0.637 ± 0.13
6,VGVSGCVLWYRV,0.692 ± 0.031
7,ERCQGGSGVLIR,0.638 ± 0.1
8,NVLNLTDTKETL,0.652 ± 0.046
9,LVFGVSRRLGRG,0.65 ± 0.01
10,PSPSPPPPPPGL,0.681 ± 0.064
11,PLPTPHPHKPYQ,0.771 ± 0.025
12,AGVTGGDGYGRW,0.583 ± 0.064
13,AIIKADKIRRKK,0.6751 ± 0.0028
14,PSGICVLSPRYG,0.7 ± 0.016
15,INKRKQKLIKKV,0.628 ± 0.0069
16,STPLPPLSLPLF,0.685 ± 0.016
17,SDVHGLSLSDVS,0.632 ± 0.085
18,WSSGLHHLPPSP,0.706 ± 0.091
19,PVPPSARHSSPP,0.66 ± 0.021
20,AVLGDGCGVVGA,0.691 ± 0.072
21,FCYWCLGWGVGL,0.692 ± 0.059
22,SPIIVCLFDLGF,0.654 ± 0.037
23,GEGGGLRARQKP,0.673 ± 0.057
24,PRPPPPLPPFPP,0.6602 ± 0.0011
25,PPRLHPNTPPLL,0.765 ± 0.08

row,Sequence,protein stability index
1,SPPPPQEADYVV,0.62 ± 0.026
2,GFILTVAPNLEH,0.648 ± 0.031
3,KYFCSLAFFLFA,0.502 ± 0.0073
4,DSSFLPHLRLAP,0.689 ± 0.053
5,RVPRYEKIVSSI,0.658 ± 0.013
6,GGGGLREGGRWE,0.743 ± 0.038
7,RPQARAQRRQAC,0.583 ± 0.034
8,CNIASTLEKTCP,0.7043 ± 0.0062
9,KENKKKKQRKLK,0.774 ± 0.067
10,SKKRKEKRTKEW,0.63 ± 0.083
11,SRPVSSFPPPLR,0.664 ± 0.071
12,GGSFRLLAVVFP,0.635 ± 0.044
13,SGGCVLRLWGFV,0.6853 ± 0.0019
14,KDDHTLMTKYNA,0.643 ± 0.025
15,PTPLSPRNTILR,0.726 ± 0.1
16,FLDPFLTRRCVF,0.694 ± 0.055
17,LFPVTSLFPPLP,0.706 ± 0.012
18,TGLLLGLFGCML,0.648 ± 0.068
19,HSRPPPSPPDPA,0.603 ± 0.033
20,PSFPSSSCTSPI,0.693 ± 0.1
21,SPFSPTAPPPPP,0.718 ± 0.017
22,TPPPASALPPSP,0.705 ± 0.014
23,GANLVTGKLTDG,0.693 ± 0.036
24,FQNFTLSQEQSE,0.717 ± 0.014
25,IKTKKKKENKRR,0.723 ± 0.008

row,Sequence,protein stability index
1,MQEMLPSRPIRH,0.69 ± 0.029
2,ASATCQKGSIPR,0.677 ± 0.036
3,LRIGTCYCGVAW,0.814 ± 0.049
4,GAVTNHAMASRP,0.725 ± 0.035
5,KLNKKKKITIRI,0.589 ± 0.025
6,LRPTPLPRPSPA,0.691 ± 0.024
7,SARSAARRWVRR,0.694 ± 0.026
8,EVYPAEADVFGG,0.69 ± 0.052
9,LFVSGVPRSWDR,0.707 ± 0.19
10,SCVWVPGCGPSR,0.679 ± 0.0072
11,CRNSTKFAVLRE,0.654 ± 0.012
12,WGGRAVGVLGVG,0.629 ± 0.048
13,QKKKIRKKKKTT,0.685 ± 0.0074
14,SFLPHALPATAS,0.682 ± 0.07
15,RKKRERIREKKN,0.494 ± 0.043
16,PPLPLTLRSSPS,0.677 ± 0.031
17,VDGLSGVRPRGL,0.69 ± 0.033
18,KTSQYKPREKID,0.736 ± 0.04
19,ARRGAGGGHKGD,0.673 ± 0.038
20,LLCYSGVIFGSV,0.59 ± 0.087
21,VWRGGGVRLGRL,0.75 ± 0.046
22,RDPERYAQLTAP,0.776 ± 0.0086
23,YGVLEYLRDLVF,0.689 ± 0.016
24,VGGRAAIGRGGW,0.706 ± 0.012
25,LSNATPAHAGKP,0.706 ± 0.13

row,Sequence,protein stability index
1,RTGAPSGEACCA,0.676 ± 0.026
2,SSVRIGRNLYVW,0.754 ± 0.13
3,YPSQLGPSVPLS,0.703 ± 0.039
4,DCFSFVASSSFC,0.7696 ± 0.004
5,SSRWSMEHMAAW,0.715 ± 0.059
6,VALFPVSFFSWL,0.643 ± 0.098
7,PASLPPRAPPPL,0.664 ± 0.019
8,PGRGRQGSGIGM,0.671 ± 0.062
9,APLPPRSALVGL,0.6759 ± 0.0011
10,KCLCGVHVRLRA,0.5901 ± 0.0017
11,LVRLVGVGLEAV,0.694 ± 0.055
12,HVTFPLRRTFRR,0.697 ± 0.013
13,HTRPTALLPLSR,0.701 ± 0.014
14,PSPPLPPPPSGP,0.677 ± 0.067
15,WGWGGGWSGACL,0.679 ± 0.0071
16,LPAFAPLCLPTL,0.703 ± 0.02
17,LVMTYGFTSVSR,0.687 ± 0.07
18,TQNRCGGPSIAL,0.634 ± 0.03
19,EKSPDYVFRWFR,0.745 ± 0.044
20,HALWRASVGQCG,0.693 ± 0.068
21,RLKFMTGLFLWS,0.73 ± 0.019
22,VKSAAGPGRRSS,0.66 ± 0.015
23,HEGAISLCRQTC,0.592 ± 0.058
24,FFSFILGGFLLG,0.6682 ± 0.00082
25,GVQSSAPVKVRI,0.6551 ± 0.0046

row,Sequence,protein stability index
1,TKKKQKIKKNNS,0.748 ± 0.042
2,PSPPPPTPPVRL,0.722 ± 0.11
3,PPPPPPPLPSLR,0.671 ± 0.0086
4,GQMYTLATSAVV,0.602 ± 0.076
5,TIHKRTLEGSYN,0.65 ± 0.048
6,PSPICFYPLGAS,0.71 ± 0.034
7,TGRLDFSIQYYR,0.6986 ± 0.0069
8,ADLTTPHPDPRP,0.674 ± 0.0096
9,DGSSESRSGTGK,0.69 ± 0.057
10,ITSHRDSVSRWK,0.707 ± 0.0095
11,PVLLLLSLPRPL,0.667 ± 0.014
12,EKKKQKDKKKKN,0.705 ± 0.0078
13,ASLLGSSPPPFI,0.696 ± 0.072
14,VRTLVGQVWETV,0.721 ± 0.031
15,YIQGAPGGLGYP,0.713 ± 0.0077
16,YKGRYDCRVGGR,0.682 ± 0.0096
17,PSSAHLPPPPPP,0.673 ± 0.014
18,KEKNKIKNREVK,0.618 ± 0.052
19,VTISLGGGGGMQ,0.684 ± 0.12
20,FVSPVPPRRVGA,0.704 ± 0.037
21,GFTAERWRVKGR,0.674 ± 0.058
22,PPPPPPPPLPPP,0.5856 ± 0.0041
23,ALWWRVGCGVGL,0.657 ± 0.042
24,PAEGVVGGKCYV,0.685 ± 0.092
25,SSLLSLAFFAPS,0.7147 ± 0.0056

row,Sequence,protein stability index
1,EEMTVKKERKRI,0.641 ± 0.051
2,RKNNKKKENKKK,0.7954 ± 0.0014
3,VRERGAGAVAGS,0.715 ± 0.044
4,SSCLRQGVGACG,0.702 ± 0.018
5,LMGASAAFIKKG,0.601 ± 0.067
6,GAWWRMEQAFGV,0.757 ± 0.034
7,LYSGIAVSATSL,0.734 ± 0.048
8,EVWGGVCWRAGG,0.735 ± 0.12
9,SRRGFTHDGLKD,0.645 ± 0.032
10,PLPPTPSLDPSS,0.6992 ± 0.0033
11,AEKKEERQRTSN,0.681 ± 0.032
12,TDTCLQDCLVFV,0.546 ± 0.039
13,TTVAIPSINRYS,0.671 ± 0.051
14,FYVTRIGPLDMS,0.801 ± 0.023
15,PPPLSCPRPPIT,0.664 ± 0.031
16,YFCGARSVGPGD,0.717 ± 0.035
17,GGVFREEGAAER,0.693 ± 0.021
18,QFTSGCPAYLLK,0.678 ± 0.0079
19,TWANKRIGRRKE,0.778 ± 0.039
20,LVTSACPVPPAR,0.5766 ± 0.002
21,RRRLRSGYCCLV,0.6861 ± 0.00091
